For the experiment, the target named is T1, His6-tagged p300 (AA 323-423) (UniProt Q09472 323-423).
T1 construct: range 323-423; also called p300-CH; not shown: His6 tag
The experiment can be described thus: TR-FRET HIF1a/p300 displacement; grade = IC50 >700 nM. Put shortly: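 Peptides competed with HIF1α C-terminal transactivation domain for His6-p300-CH (complex 300 nM final) during 1 h at RT in 20 mM HEPES pH 7.4, 150 mM NaCl, 7.5 mM CHAPS, 1 mM DTT. Anti-Flag-K (0.5 μM) and anti-His-D2 (4 nM) were added for 2 h. IC50 was derived from the TR-FRET ratio by one-site fit.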
On the technique in general: TR-FRET usually uses a lanthanide donor and a delayed reading to cut background.

For orientation: IC50 means the concentration at which inhibition is half-maximal.

Bridge positions count the residues as written; N and C are the ends. Square brackets hold non-standard residues; d marks the D form. Ala(3-Me-diazirin-3-yl) = CC1(C[C@H](N)C(=O)O)N=N1; S5 = C=CCCC[C@](C)(N)C(=O)O; Nle = CCCC[C@H](N)C(=O)O; Dap = NC[C@H](N)C(=O)O

T1 sequence (Q09472 323-423 limits assumed): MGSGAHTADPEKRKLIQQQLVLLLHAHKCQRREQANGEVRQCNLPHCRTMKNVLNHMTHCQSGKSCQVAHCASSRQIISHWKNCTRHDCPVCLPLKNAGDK

B1: SP-70 (peptide)
peptide: Ac-FIDEQVLA[S5]LVI[S5]AALDRI-NH2
modifications: staple 9-13
SMILES: CC[C@H](C)[C@H](NC(=O)[C@H](CCCNC(=N)N)NC(=O)[C@H](CC(=O)O)NC(=O)[C@H](CC(C)C)NC(=O)[C@H](C)NC(=O)[C@H](C)NC(=O)[C@]1(C)CCCC=CCCC[C@](C)(NC(=O)[C@H](C)NC(=O)[C@H](CC(C)C)NC(=O)[C@@H](NC(=O)[C@H](CCC(N)=O)NC(=O)[C@H](CCC(=O)O)NC(=O)[C@H](CC(=O)O)NC(=O)[C@@H](NC(=O)[C@H](Cc2ccccc2)NC(C)=O)[C@@H](C)CC)C(C)C)C(=O)N[C@@H](CC(C)C)C(=O)N[C@@H](C(C)C)C(=O)N[C@@H]([C@@H](C)CC)C(=O)N1)C(N)=O
In turn, B1 came in with a half-inhibitory concentration (IC50) of more than 700 nM.

B2: SP-71 (peptide)
peptide: Ac-FIDEEV[Ala(3-Me-diazirin-3-yl)][Nle][S5]LVI[S5][Nle]ALDRI-NH2
modifications: staple 9-13
The molecule B2 returned a 50% inhibitory concentration (IC50) of more than 700 nM.

B3: SP-68 (peptide)
peptide: Ac-FIDEEVL[Nle][S5]LVI[S5][Nle]ALD[Dap]-NH2
modifications: staple 9-13
SMILES: CCCC[C@H](NC(=O)[C@H](CC(C)C)NC(=O)[C@@H](NC(=O)[C@H](CCC(=O)O)NC(=O)[C@H](CCC(=O)O)NC(=O)[C@H](CC(=O)O)NC(=O)[C@@H](NC(=O)[C@H](Cc1ccccc1)NC(C)=O)[C@@H](C)CC)C(C)C)C(=O)N[C@@]1(C)CCCC=CCCC[C@@](C)(C(=O)N[C@@H](CCCC)C(=O)N[C@@H](C)C(=O)N[C@@H](CC(C)C)C(=O)N[C@@H](CC(=O)O)C(=O)N[C@@H](CN)C(N)=O)NC(=O)[C@H]([C@@H](C)CC)NC(=O)[C@H](C(C)C)NC(=O)[C@H](CC(C)C)NC1=O
In the case of B3, the IC50 was more than 700 nM.

B4: SP-64 (peptide)
peptide: Ac-FIDEE[Dap]L[Nle][S5]LVI[S5][Nle]ALDRI-NH2
modifications: staple 9-13
SMILES: CCCC[C@H](NC(=O)[C@H](CC(C)C)NC(=O)[C@H](CN)NC(=O)[C@H](CCC(=O)O)NC(=O)[C@H](CCC(=O)O)NC(=O)[C@H](CC(=O)O)NC(=O)[C@@H](NC(=O)[C@H](Cc1ccccc1)NC(C)=O)[C@@H](C)CC)C(=O)N[C@@]1(C)CCCC=CCCC[C@@](C)(C(=O)N[C@@H](CCCC)C(=O)N[C@@H](C)C(=O)N[C@@H](CC(C)C)C(=O)N[C@@H](CC(=O)O)C(=O)N[C@@H](CCCNC(=N)N)C(=O)N[C@H](C(N)=O)[C@@H](C)CC)NC(=O)[C@H]([C@@H](C)CC)NC(=O)[C@H](C(C)C)NC(=O)[C@H](CC(C)C)NC1=O
The molecule B4 came in with a half-maximal inhibitory concentration (IC50) of more than 700 nM.

B5: SP-77 (peptide)
peptide: Ac-FIDEE[S5]LMS[S5]VIEMGLDRIKELPELWL-NH2
modifications: staple 6-10
SMILES: CC[C@H](C)[C@H](NC(=O)[C@H](Cc1ccccc1)NC(C)=O)C(=O)N[C@@H](CC(=O)O)C(=O)N[C@@H](CCC(=O)O)C(=O)N[C@@H](CCC(=O)O)C(=O)N[C@@]1(C)CCCC=CCCC[C@@](C)(C(=O)N[C@H](C(=O)N[C@H](C(=O)N[C@@H](CCC(=O)O)C(=O)N[C@@H](CCSC)C(=O)NCC(=O)N[C@@H](CC(C)C)C(=O)N[C@@H](CC(=O)O)C(=O)N[C@@H](CCCNC(=N)N)C(=O)N[C@H](C(=O)N[C@@H](CCCCN)C(=O)N[C@@H](CCC(=O)O)C(=O)N[C@@H](CC(C)C)C(=O)N2CCC[C@H]2C(=O)N[C@@H](CCC(=O)O)C(=O)N[C@@H](CC(C)C)C(=O)N[C@@H](Cc2c[nH]c3ccccc23)C(=O)N[C@@H](CC(C)C)C(N)=O)[C@@H](C)CC)[C@@H](C)CC)C(C)C)NC(=O)[C@H](CO)NC(=O)[C@H](CCSC)NC(=O)[C@H](CC(C)C)NC1=O
Molecule B5 had an IC50 of more than 700 nM.

The values above are taken from US20190225650A1, “PEPTIDOMIMETIC MACROCYCLES AND USE THEREOF IN REGULATING HIF1ALPHA” (AILERON THERAPEUTICS, INC., priority 2013, published 2019).
